# Measurements reported in patent US20240270821A1, “GIP/GLP1/GCG TRI-RECEPTOR AGONISTS AND USES THEREOF” (priority 2023, published 2024).
# T1: human GIP receptor (human) (UniProt P48546)
# T1 sequence (looked up): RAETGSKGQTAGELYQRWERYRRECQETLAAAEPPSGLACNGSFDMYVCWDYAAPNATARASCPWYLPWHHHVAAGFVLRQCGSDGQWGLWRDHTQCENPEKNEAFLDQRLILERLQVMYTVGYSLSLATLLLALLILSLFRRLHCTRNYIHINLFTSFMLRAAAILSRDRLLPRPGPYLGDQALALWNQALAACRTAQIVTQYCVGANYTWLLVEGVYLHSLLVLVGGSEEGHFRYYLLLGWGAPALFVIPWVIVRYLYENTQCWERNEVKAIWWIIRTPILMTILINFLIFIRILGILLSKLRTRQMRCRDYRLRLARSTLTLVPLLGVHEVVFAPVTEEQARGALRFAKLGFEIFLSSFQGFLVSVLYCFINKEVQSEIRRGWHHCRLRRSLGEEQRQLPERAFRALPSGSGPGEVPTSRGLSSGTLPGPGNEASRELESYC
# How the values were obtained:
# Experiment in all cases: cell-based or functional assay
# [1] = target: hGLP-1R (Homo sapiens, UniProt P43220)
# [2] = target: T1, human GIP receptor (human)
# [3] = target: human glucagon receptor (human) (UniProt P47871)
# Chain of human glucagon receptor (human) (P47871 26-477): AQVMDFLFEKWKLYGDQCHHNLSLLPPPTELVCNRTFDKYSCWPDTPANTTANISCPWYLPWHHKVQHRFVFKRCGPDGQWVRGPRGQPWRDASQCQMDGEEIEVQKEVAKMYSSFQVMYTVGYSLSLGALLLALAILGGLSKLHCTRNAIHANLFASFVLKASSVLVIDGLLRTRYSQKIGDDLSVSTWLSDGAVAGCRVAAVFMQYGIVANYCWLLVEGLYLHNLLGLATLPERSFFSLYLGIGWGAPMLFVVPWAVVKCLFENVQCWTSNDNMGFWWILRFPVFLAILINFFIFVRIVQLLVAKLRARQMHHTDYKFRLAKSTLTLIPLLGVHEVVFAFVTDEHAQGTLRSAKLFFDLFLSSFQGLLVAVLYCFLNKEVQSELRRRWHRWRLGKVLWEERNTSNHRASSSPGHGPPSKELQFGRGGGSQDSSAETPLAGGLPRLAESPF
# Chain of hGLP-1R (P43220 24-463): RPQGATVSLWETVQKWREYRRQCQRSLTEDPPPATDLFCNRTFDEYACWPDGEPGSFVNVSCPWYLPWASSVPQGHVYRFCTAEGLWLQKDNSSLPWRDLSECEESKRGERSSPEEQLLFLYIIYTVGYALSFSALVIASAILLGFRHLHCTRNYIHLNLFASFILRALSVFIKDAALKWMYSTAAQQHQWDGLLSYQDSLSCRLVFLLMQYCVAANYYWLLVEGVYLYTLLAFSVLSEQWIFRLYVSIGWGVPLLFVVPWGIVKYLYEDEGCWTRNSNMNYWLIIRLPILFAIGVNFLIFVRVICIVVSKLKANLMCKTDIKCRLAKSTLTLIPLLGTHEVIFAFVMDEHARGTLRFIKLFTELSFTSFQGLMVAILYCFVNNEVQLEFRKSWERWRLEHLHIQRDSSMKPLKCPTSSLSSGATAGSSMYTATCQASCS
Binder,Relative cAMP EC50 [1],cAMP Rel EC50 (1% HSA) [1],Relative cAMP EC50 [2],cAMP Rel EC50 (1% HSA) [2],Relative cAMP EC50 [3],cAMP Rel EC50 (1% HSA) [3]
"YXQGTFTSDXSQXLDXKAQXAFIEYLIAXGPSSGEPPPSGSEE (non-natural residues, C-terminal amide, acylated Lys with fatty diacid; synthetic construct; SITE 2: note = 2-Aminoisobutyric Acid; SITE 10: note = 3-(4-Pyridyl)-L-alanine; SITE 13: note = alpha-methyl-leucine; SITE 16: note = L-ornithine; SITE 17: note = Lysine is chemically modified through conjugation of the epsilon-amino group of the Lysine side chain with (2-[2-(2-) [Example 1095]",1.17 nM,159 nM,0.065 nM,8.73 nM,2.75 nM,337 nM
"YXQGTFTSDXSQXLDXKAQXAFIEYLIAXGPSSGEPPPSGSEE (non-natural residues, acylated Lys ((γGlu)2-C18 diacid), C-terminal amide; synthetic construct; SITE 2: note = 2-Aminoisobutyric Acid; SITE 10: note = 3-(4-Pyridyl)-L-alanine; SITE 13: note = alpha-methyl-leucine; SITE 16: note = L-ornithine; SITE 17: note = Lysine is chemically modified through conjugation of the epsilon-amino group of the Lysine side chain with (gamma-Gl)) [Example 1092]",1.33 nM,230 nM,0.0648 nM,7.83 nM,3.45 nM,506 nM
YXQGTFTSDXSQXLDKKAQXAFIEYLIAGGPSSGAPPPSGEEE (non-natural residues; acylated Lys; C-terminal amide; synthetic construct; SITE 2: note = 2-Aminoisobutyric Acid; SITE 10: note = 3-(4-Pyridyl)-L-alanine; SITE 13: note = alpha-methyl-leucine; SITE 17: note = Lysine is chemically modified through conjugation of the epsilon-amino group of the Lysine side chain with (Glu)-(gamma-Glu)-CO-(CH2)16-CO2H; SIT) [Example 1089],2.96 nM,449 nM,0.213 nM,34.6 nM,14 nM,2580 nM
"YXQGTFTSDXSQXLDXKAQXAFIEXLIAXGPSSGEPPPSGSEE (non-natural residues (Aib, 4Pal, Orn, Me4Pal, αMeY); lipidated K; amide; synthetic construct; SITE 2: note = 2-Aminoisobutyric Acid; SITE 10: note = 3-(4-Pyridyl)-L-alanine; SITE 13: note = alpha-methyl-leucine; SITE 16: note = L-ornithine; SITE 17: note = Lysine is chemically modified through conjugation of the epsilon-amino group of the Lysine side chain with (gamma-Gl)) [Example 1094]",0.623 nM,64.4 nM,0.0515 nM,5.86 nM,5.84 nM,831 nM
YXQGTFTSDXSQXLDXKAQXAFIEYLIAXGPSSGAPPPSGSEE (non-natural residues; acylated Lys C18 diacid; C-term amide; synthetic construct; SITE 2: note = 2-Aminoisobutyric Acid; SITE 10: note = 3-(4-Pyridyl)-L-alanine; SITE 13: note = alpha-methyl-leucine; SITE 16: note = L-ornithine; SITE 17: note = Lysine is chemically modified through conjugation of the epsilon-amino group of the Lysine side chain with (gamma-Gl)) [Example 1091],1.23 nM,145 nM,0.0592 nM,5.79 nM,4.67 nM,550 nM
"YXQGTFTSDXSQXLDKKAQXAFIEYLIAGGPSSGAPPPSGEEE (acylated Lys, C-terminal amide, non-natural residues; synthetic construct; SITE 2: note = 2-Aminoisobutyric Acid; SITE 10: note = 3-(4-Pyridyl)-L-alanine; SITE 13: note = alpha-methyl-leucine; SITE 17: note = Lysine is chemically modified through conjugation of the epsilon-amino group of the Lysine side chain with (Glu)2-(gamma-Glu)-CO-(CH2)16-CO2H; SI) [Example 1090]",5.44 nM,619 nM,0.272 nM,27.3 nM,15.6 nM,2010 nM
YXQGTFTSDXSQXLDXKAQXAFIEXLIAXGPSSGEPPPSGSEE (Non-natural residues; K acylated AEEA-γGlu-C18 diacid; C-terminal amide; synthetic construct; SITE 2: note = 2-Aminoisobutyric Acid; SITE 10: note = 3-(4-Pyridyl)-L-alanine; SITE 13: note = alpha-methyl-leucine; SITE 16: note = L-ornithine; SITE 17: note = Lysine is chemically modified through conjugation of the epsilon-amino group of the Lysine side chain with (2-[2-(2-) [Example 1099],0.73 nM,75.8 nM,0.076 nM,8.64 nM,3.47 nM,472 nM
YXQGTFTSDXSQXLDXKAQXAFIEYLIQXGPSSGEPPPSGSEE (non-natural residues; lipidated Lys AEEA-γGlu-C18 diacid; C-term amide; synthetic construct; SITE 2: note = 2-Aminoisobutyric Acid; SITE 10: note = 3-(4-Pyridyl)-L-alanine; SITE 13: note = alpha-methyl-leucine; SITE 16: note = L-ornithine; SITE 17: note = Lysine is chemically modified through conjugation of the epsilon-amino group of the Lysine side chain with (2-[2-(2-) [Example 1096],1.47 nM,194 nM,0.0799 nM,11.6 nM,3.94 nM,397 nM
"YXQGTFTSDXSQXLDXKAQXAFIEYLIQXGPSSGEPPPSGSEE (not fully specified; non-natural residues, γGlu-C18 diacid acyl on K, C-terminal amide; synthetic construct; SITE 2: note = 2-Aminoisobutyric Acid; SITE 10: note = 3-(4-Pyridyl)-L-alanine; SITE 13: note = alpha-methyl-leucine; SITE 16: note = L-ornithine; SITE 17: note = Lysine is chemically modified through conjugation of the epsilon-amino group of the Lysine side chain with D-Glutami) [Example 1102]",2.18 nM,295 nM,0.0418 nM,5.12 nM,4.37 nM,516 nM
"YXQGTFTSDXSQXLDXKAQXAFIEXLIEXGPSSGEPPPSGSEE (non-natural residues, C18 diacid-(γGlu)2 acyl on K, C-terminal amide; synthetic construct; SITE 2: note = 2-Aminoisobutyric Acid; SITE 10: note = 3-(4-Pyridyl)-L-alanine; SITE 13: note = alpha-methyl-leucine; SITE 16: note = L-ornithine; SITE 17: note = Lysine is chemically modified through conjugation of the epsilon-amino group of the Lysine side chain with (gamma-Gl)) [Example 1093]",0.954 nM,141 nM,0.152 nM,26.8 nM,7.72 nM,958 nM
"YXQGTFTSDXSQXLDXKAQXQFIEXLIEXGPSSGEPPPSGSEE (Aib, 4Pal, Orn, αMeL, Me4Pal, αMeY, acylated Lys, amide; synthetic construct; SITE 2: note = 2-Aminoisobutyric Acid; SITE 10: note = 3-(4-Pyridyl)-L-alanine; SITE 13: note = alpha-methyl-leucine; SITE 16: note = L-ornithine; SITE 17: note = Lysine is chemically modified through conjugation of the epsilon-amino group of the Lysine side chain with (2-[2-(2-) [Example 1098]",1.22 nM,184 nM,0.201 nM,31.2 nM,6.2 nM,994 nM
"YXQGTFTSDXSQXLDXKAQXAFIEXLIEXGPSSGEPPPSGSEE (not fully specified; Aib, 4Pal, Orn, Me4Pal, αMeY; lipidated Lys; C-terminal amide; synthetic construct; SITE 2: note = 2-Aminoisobutyric Acid; SITE 10: note = 3-(4-Pyridyl)-L-alanine; SITE 13: note = alpha-methyl-leucine; SITE 16: note = L-ornithine; SITE 17: note = Lysine is chemically modified through conjugation of the epsilon-amino group of the Lysine side chain with D-Glutami) [Example 1103]",1.06 nM,183 nM,0.0723 nM,19.5 nM,11.1 nM,1350 nM
YXQGTFTSDXSQXLDXKAQXQFIEXLIAXGPSSGEPPPSGSEE (non-natural residues; lysine acylated AEEA-γGlu-C18 diacid; C-terminal amide; synthetic construct; SITE 2: note = 2-Aminoisobutyric Acid; SITE 10: note = 3-(4-Pyridyl)-L-alanine; SITE 13: note = alpha-methyl-leucine; SITE 16: note = L-ornithine; SITE 17: note = Lysine is chemically modified through conjugation of the epsilon-amino group of the Lysine side chain with (2-[2-(2-) [Example 1100],0.514 nM,77.2 nM,0.0694 nM,9.04 nM,5.28 nM,577 nM
YXQGTFTSDXSQXLDXKAQXAFIEXLIEXGPSSGEPPPSGSEE (AEEA-γGlu-C18 diacid on Lys; non-natural residues; amide; synthetic construct; SITE 2: note = 2-Aminoisobutyric Acid; SITE 10: note = 3-(4-Pyridyl)-L-alanine; SITE 13: note = alpha-methyl-leucine; SITE 16: note = L-ornithine; SITE 17: note = Lysine is chemically modified through conjugation of the epsilon-amino group of the Lysine side chain with (2-[2-(2-) [Example 1097],1.59 nM,141 nM,0.136 nM,27.3 nM,6.16 nM,752 nM
